The record followed here is the Immune Epitope Database (IEDB).

The target of test [1] is HLA-B*40:01. The test can be described thus: IEDB peptide-MHC binding, purified MHC/direct/fluorescence; filed as Kd, often an IC50 or EC50 that approximates it; ≥ and ≤ were set here for values at or beyond the usual limits of such assays. The settings on record: source organism: Orthohantavirus tulaense.
The target of test [2] is HLA-B*51:01. Described as above. The settings on record: source organism: Orthohantavirus tulaense.
In a further test the target is HLA-A*29:02. The description is as above. Conditions: source organism: Orthohantavirus tulaense.
For test [3], the target named is HLA-B*07:02. The test is described as above. The settings on record: source organism: Orthohantavirus tulaense.
The target of a further test is HLA-A*80:01. The description is as above. Conditions: source organism: Orthohantavirus andesense.
The target of test [4] is HLA-A*01:01. Described as above. The settings on record: source organism: Orthohantavirus andesense.
The target of the next test is HLA-A*25:01. Described as above. The settings on record: source organism: Orthohantavirus tulaense.
The next test deals with HLA-B*44:03. The test can be described thus: IEDB peptide-MHC binding, purified MHC/competitive/radioactivity; filed as Kd, often an IC50 or EC50 that approximates it; ≥ and ≤ were set here for values at or beyond the usual limits of such assays. Conditions: source organism: Hepatitis C virus (isolate 1).
Test [5] has as its target HLA-B*40:01. The test is described as above. Conditions: source organism: Hepatitis C virus (isolate 1).
Test [6] has as its target HLA-B*51:01. The description is as above. The settings on record: source organism: Hepatitis C virus (isolate 1).
A further test concerns the target HLA-B*40:02. The description is as above. Conditions: source organism: Hepatitis C virus (isolate 1).
Test [7] has as its target HLA-A*68:02. Described as above. The settings on record: source organism: Hepatitis C virus (isolate 1).
A further test deals with HLA-B*08:01. The test is described as above. The settings on record: source organism: Hepatitis C virus (isolate 1).
For the next test, the target named is HLA-B*53:01. Described as above. Conditions: source organism: Hepatitis C virus (isolate 1).
Another test concerns the target HLA-B*35:01. The description is as above. The settings on record: source organism: Hepatitis C virus (isolate 1).
Test [8] deals with HLA-A*02:06. The test is described as above. Conditions: source organism: Hepatitis C virus (isolate 1).
Another test has as its target HLA-B*54:01. The test is described as above. Conditions: source organism: Hepatitis C virus (isolate 1).
Another test addresses HLA-B*44:02. The test is described as above. Conditions: source organism: Hepatitis C virus (isolate 1).
Test [9] concerns the target HLA-B*07:02. Described as above. Conditions: source organism: Hepatitis C virus (isolate 1).
For the next test, the target named is HLA-B*18:01. Described as above. Conditions: source organism: Hepatitis C virus (isolate 1).
Test [10] concerns the target HLA-A*31:01. The description is as above. Conditions: source organism: Hepatitis C virus (isolate 1).
Test [11] deals with HLA-A*02:02. Described as above. Conditions: source organism: Hepatitis C virus (isolate 1).
Test [12] addresses HLA-A*01:01. The test is described as above. Conditions: source organism: Hepatitis C virus (isolate 1).
For test [13], the target named is HLA-A*02:03. The test is described as above. Conditions: source organism: Hepatitis C virus (isolate 1).
The target in test [14] is HLA-A*11:01. The description is as above. The settings on record: source organism: Hepatitis C virus (isolate 1).
A further test addresses HLA-A*68:01. The description is as above. Conditions: source organism: Hepatitis C virus (isolate 1).
The target in another test is HLA-A*33:01. Described as above. The settings on record: source organism: Hepatitis C virus (isolate 1).
Test [15] has as its target HLA-A*03:01. The description is as above. Conditions: source organism: Hepatitis C virus (isolate 1).
The target of test [16] is HLA-A*02:06. Description: IEDB peptide-MHC binding, purified MHC/competitive/radioactivity; ≥ and ≤ were set here for values at or beyond the usual limits of such assays. The settings on record: source organism: Hepatitis C virus (isolate H77).
Test [17] concerns the target HLA-A*02:02. The test is described as above. The settings on record: source organism: Hepatitis C virus (isolate H77).
Test [18] deals with HLA-A*02:03. The description is as above. The settings on record: source organism: Hepatitis C virus (isolate H77).
The target in the next test is HLA-B*08:02. The test can be described thus: IEDB peptide-MHC binding, purified MHC/competitive/fluorescence; filed as Kd, often an IC50 or EC50 that approximates it; ≥ and ≤ were set here for values at or beyond the usual limits of such assays. The settings on record: source organism: Human immunodeficiency virus 1.
The target of the next test is HLA-A*26:02. The test is described as above. Conditions: source organism: Human immunodeficiency virus 1.
Test [19] has as its target HLA-A*68:02. The test is described as above. The settings on record: source organism: Human immunodeficiency virus 1.
For test [20], the target named is HLA-A*02:06. The test is described as above. The settings on record: source organism: Human immunodeficiency virus 1.
A further test concerns the target HLA-A*30:01. The description is as above. Conditions: source organism: Human immunodeficiency virus 1.
Another test has as its target HLA-A*02:01. The description is as above. Conditions: source organism: Human immunodeficiency virus 1.
Test [21] has as its target HLA-A*31:01. The description is as above. Conditions: source organism: Human immunodeficiency virus 1.
The target of a further test is HLA-A*69:01. The description is as above. Conditions: source organism: Human immunodeficiency virus 1.
Test [22] concerns the target HLA-A*01:01. The test is described as above. The settings on record: source organism: Human immunodeficiency virus 1.
Test [23] has as its target HLA-A*02:03. The test is described as above. The settings on record: source organism: Human immunodeficiency virus 1.
Test [24] concerns the target HLA-A*11:01. The description is as above. Conditions: source organism: Human immunodeficiency virus 1.
Another test concerns the target HLA-B*15:17. The description is as above. Conditions: source organism: Human immunodeficiency virus 1.
Test [25] addresses HLA-A*03:01. The description is as above. The settings on record: source organism: Human immunodeficiency virus 1.
The next test has as its target HLA-A*26:03. The test is described as above. The settings on record: source organism: Human immunodeficiency virus 1.

For orientation: Kd means a measure of binding affinity in units of concentration. Take ATATWFQYY: the dissociation constant (Kd) in the test with HLA-B*40:01 [1] was at least 20 µM; with HLA-B*51:01 [2], at least 20 µM; with HLA-A*29:02, at most 0.001 µM; with HLA-B*07:02 [3] it was at least 20 µM; with HLA-A*80:01, 0.0142 µM; with HLA-A*01:01 [4] it was 0.0163 µM. Further, the dissociation constant (Kd) with HLA-A*25:01 was at least 20 µM.

As a reminder, the IC50 is the concentration that inhibits the measured activity by half. Turning to KLVALGINAV, the equilibrium dissociation constant (Kd) with HLA-B*44:03 is at least 70.1 µM; with HLA-B*40:01 [5], at least 69.6 µM; with HLA-B*51:01 [6] it was at least 47 µM; with HLA-B*40:02 it was at least 70.8 µM; with HLA-A*68:02 [7], 12.8 µM; with HLA-B*08:01, at least 70 µM. The equilibrium dissociation constant (Kd) in the test with HLA-B*53:01 is at least 69.9 µM; in the test with HLA-B*35:01 it was at least 69.9 µM; with HLA-A*02:06 [8] it was 0.00394 µM; with HLA-B*54:01, 19.2 µM; in the test with HLA-B*44:02 it was at least 70.2 µM; in the test with HLA-B*07:02 [9], 2.17 µM. Further, the Kd is at least 70.5 µM in the test with HLA-B*18:01; 13.6 µM with HLA-A*31:01 [10]; 0.0827 µM with HLA-A*02:02 [11]; 9.01 µM in the test with HLA-A*01:01 [12]; 0.0111 µM in the test with HLA-A*02:03 [13]; at least 69.8 µM in the test with HLA-A*11:01 [14]. In addition, the Kd in the test with HLA-A*68:01 was at least 70.2 µM; with HLA-A*33:01 it was at least 70 µM; with HLA-A*03:01 [15], 16.6 µM. The IC50 with HLA-A*02:06 [16] came out at 0.0037 µM; with HLA-A*02:02 [17], 0.015 µM; with HLA-A*02:03 [18] it was 0.075 µM.

For VLYCVHQEI, the Kd is at least 20 µM in the test with HLA-B*08:02; at least 20 µM with HLA-A*26:02; 0.233 µM in the test with HLA-A*68:02 [19]; 0.00405 µM with HLA-A*02:06 [20]; 12.3 µM with HLA-A*30:01; 0.007 µM in the test with HLA-A*02:01. The equilibrium dissociation constant (Kd) in the test with HLA-A*31:01 [21] is at least 20 µM; in the test with HLA-A*69:01, 0.824 µM; in the test with HLA-A*01:01 [22], at least 20 µM; with HLA-A*02:03 [23], 0.0088 µM; with HLA-A*11:01 [24], at least 20 µM; with HLA-B*15:17, 0.345 µM. The dissociation constant Kd with HLA-A*03:01 [25] and with HLA-A*26:03 was at least 20 µM each time.
